These results are taken from patent publication US20210363265A1 (INVENRA, published 2021).

The target of assay [1] is T1, OX40 on T cells (primary naive CD4+ T cells; Jurkat/OX40 reporter cells) (UniProt P43489 29-277, limits assumed).
T1 sequence (looked up): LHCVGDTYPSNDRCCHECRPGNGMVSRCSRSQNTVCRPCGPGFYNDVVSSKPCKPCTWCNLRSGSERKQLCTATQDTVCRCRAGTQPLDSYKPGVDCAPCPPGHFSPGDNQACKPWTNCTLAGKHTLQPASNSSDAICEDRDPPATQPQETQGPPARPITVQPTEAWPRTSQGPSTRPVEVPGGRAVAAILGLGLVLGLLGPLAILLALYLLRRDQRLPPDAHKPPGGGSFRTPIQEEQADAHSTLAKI
Put plainly: cell-based or functional assay.

Another assay addresses T2, OX40: 127-214-Fc (human).
T2 construct: Immobilized on the BLI sensor
Description: BLI, OX40-Fc truncation immobilized on sensor.

The next assay concerns the target T3, OX40: 108-214-Fc (human).
T3 construct: Immobilized on the BLI sensor
Description: BLI, OX40-Fc fragment immobilized on sensor. Background: BLI is a label-free optical method that tracks binding on a fibre tip over time.

The target of a further assay is T4, OX40: 66-214-Fc (human).
T4 construct: Immobilized on the BLI sensor; also called first truncation
Description: BLI, OX40-Fc fragment immobilized on sensor.

T2 sequence (chain, as listed by the source): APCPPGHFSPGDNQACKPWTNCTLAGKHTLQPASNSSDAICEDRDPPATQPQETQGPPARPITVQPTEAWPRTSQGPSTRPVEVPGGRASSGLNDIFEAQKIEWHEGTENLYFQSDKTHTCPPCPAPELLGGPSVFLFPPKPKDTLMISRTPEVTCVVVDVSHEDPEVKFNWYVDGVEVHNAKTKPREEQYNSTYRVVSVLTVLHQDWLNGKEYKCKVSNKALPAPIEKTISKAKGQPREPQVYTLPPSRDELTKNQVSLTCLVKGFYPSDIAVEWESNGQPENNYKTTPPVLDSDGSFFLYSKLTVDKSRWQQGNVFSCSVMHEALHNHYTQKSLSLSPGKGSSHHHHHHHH
T3 sequence (chain, as listed by the source): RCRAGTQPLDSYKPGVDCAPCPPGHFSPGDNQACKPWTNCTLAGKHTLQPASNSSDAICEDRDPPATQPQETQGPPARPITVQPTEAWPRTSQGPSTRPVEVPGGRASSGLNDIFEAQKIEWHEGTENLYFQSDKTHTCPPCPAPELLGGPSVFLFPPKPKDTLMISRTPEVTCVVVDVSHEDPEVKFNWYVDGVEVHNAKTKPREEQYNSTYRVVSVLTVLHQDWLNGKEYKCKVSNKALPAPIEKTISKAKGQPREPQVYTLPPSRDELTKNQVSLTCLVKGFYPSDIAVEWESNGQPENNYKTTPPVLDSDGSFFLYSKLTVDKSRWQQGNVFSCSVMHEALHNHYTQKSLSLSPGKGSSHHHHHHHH
T4 sequence (chain, as listed by the source): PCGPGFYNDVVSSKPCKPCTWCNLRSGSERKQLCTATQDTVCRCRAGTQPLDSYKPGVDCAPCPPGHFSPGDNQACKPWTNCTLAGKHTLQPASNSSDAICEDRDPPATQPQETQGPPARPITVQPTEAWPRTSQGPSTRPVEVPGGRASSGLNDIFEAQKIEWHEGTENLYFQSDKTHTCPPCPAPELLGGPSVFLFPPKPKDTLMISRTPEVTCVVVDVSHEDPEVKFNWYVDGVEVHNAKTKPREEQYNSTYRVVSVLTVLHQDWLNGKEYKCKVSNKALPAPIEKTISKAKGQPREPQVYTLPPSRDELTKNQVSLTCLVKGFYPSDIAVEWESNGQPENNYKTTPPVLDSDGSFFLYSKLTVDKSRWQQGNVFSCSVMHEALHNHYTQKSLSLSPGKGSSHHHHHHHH

B1: OX40:24-24×11 (bispecific antibody)
chain 1: not shown
chain 2: EVQLVESGGGLVQPGGSLRLSCAASGFTFLSYYIHWVRQAPGKGLEWVAYIDPYSGGTDYADSVKGRFTISADTSKNTAYLQMNSLRAEDTAVYYCARVGLSFYAQEPVLDYWGQGTLVTVSSASPREPQVYTDPPSRDELTKNQVSLTCLVKGFYPSDIAVEWESNGQPENNYKTTPPVLDSDGSFFLYSKLTVDKSRWQQGNVFSCSVMHEALHNHYTQKSLSLSGEC
chain 3: DIQMTQSPSSLSASVGDRVTITCRASQSVSSAVAWYQQKPGKAPKLLIYSASSLYSGVPSRFSGSRSGTDFTLTISSLQPEDFATYYCQQYTSHPGTFGQGTKVEIKRTVAAPSVFIFPPSDEQLKSGTASVVCLLNNFYPREAKVQWKVDNALQSGNSQESVTEQDSKDSTYSLSSTLTLSKADYEKHKVYACEVTHQGLSSPVTKSFNRGECDKTHTCPPCPAPELLGGPSVFLFPPKPKDTLMISRTPEVTCVVVDVSHEDPEVKFNWYVDGVEVHNAKTKPREEQYNSTYRVVSVLTVLHQDWLNGKEYKCKVSNKALPAPIEKTISKAKGQPREPQVCTLPPSREEMTKNQVSLSCAVKGFYPSDIAVEWESNGQPENNYKTTPPVLDSDGSFFLVSKLTVDKSRWQQGNVFSCSVMHEALHNHYTQKSLSLSPGK
chain 4: EVQLVESGGGLVQPGGSLRLSCAASGFTFSSYVIHWVRQAPGKGLEWVAYIFPYGGTTYYADSVKGRFTISADTSKNTAYLQMNSLRAEDTAVYYCARGYYYVSDRVMDYWGQGTLVTVSSASTKGPSVFPLAPSSKSTSGGTAALGCLVKDYFPEPVTVSWNSGALTSGVHTFPAVLQSSGLYSLSSVVTVPSSSLGTQTYICNVNHKPSNTKVDKKVEPPKSC
As for B1, the “antibody concentration at peak T cell proliferation” value (from here on “antibody concentration”) in assay [1] turned out to be 10 nM.

B2: OX40:24-11×11 (bispecific antibody)
chain 1: not shown
chain 2: EVQLVESGGGLVQPGGSLRLSCAASGFTFSSYVIHWVRQAPGKGLEWVAYIFPYGGTTYYADSVKGRFTISADTSKNTAYLQMNSLRAEDTAVYYCARGYYYVSDRVMDYWGQGTLVTVSSASTKGPSVFPLAPSSKSTSGGTAALGCLVKDYFPEPVTVSWNSGALTSGVHTFPAVLQSSGLYSLSSVVTVPSSSLGTQTYICNVNHKPSNTKVDKKVEPPKSC
chain 3: DIQMTQSPSSLSASVGDRVTITCRASQSVSSAVAWYQQKPGKAPKLLIYSASSLYSGVPSRFSGSRSGTDFTLTISSLQPEDFATYYCQQYTSHPGTFGQGTKVEIKRTVAAPSVFIFPPSDEQLKSGTASVVCLLNNFYPREAKVQWKVDNALQSGNSQESVTEQDSKDSTYSLSSTLTLSKADYEKHKVYACEVTHQGLSSPVTKSFNRGECDKTHTCPPCPAPELLGGPSVFLFPPKPKDTLMISRTPEVTCVVVDVSHEDPEVKFNWYVDGVEVHNAKTKPREEQYNSTYRVVSVLTVLHQDWLNGKEYKCKVSNKALPAPIEKTISKAKGQPREPQVCTLPPSREEMTKNQVSLSCAVKGFYPSDIAVEWESNGQPENNYKTTPPVLDSDGSFFLVSKLTVDKSRWQQGNVFSCSVMHEALHNHYTQKSLSLSPGK
chain 4: EVQLVESGGGLVQPGGSLRLSCAASGFTFLSYYIHWVRQAPGKGLEWVAYIDPYSGGTDYADSVKGRFTISADTSKNTAYLQMNSLRAEDTAVYYCARVGLSFYAQEPVLDYWGQGTLVTVSSASPREPQVYTDPPSRDELTKNQVSLTCLVKGFYPSDIAVEWESNGQPENNYKTTPPVLDSDGSFFLYSKLTVDKSRWQQGNVFSCSVMHEALHNHYTQKSLSLSGEC
For the molecule B2, the “antibody concentration” value in assay [1] is less than 10 nM.

B3: OX40:24-24(WEE)×11 (bispecific antibody)
chain 1: not shown
chain 2: EVQLVESGGGLVQPGGSLRLSCAASGFTFLSYYIHWVRQAPGKGLEWVAYIDPYSGGTDYADSVKGRFTISADTSKNTAYLQMNSLRAEDTAVYYCARVGLSFYAQEPVLDYWGQGTLVTVSSASPREPQVYTDPPSRDELTKNQVSLTCLVKGFYPSDIAVEWESNGQPENNYKTTPPVLDSDGSFFLYSKLTVDKSRWQQGNVFSCSVMHEALHNHYTQKSLSLSGEC
chain 3: DIQMTQSPSSLSASVGDRVTITCRASQSVSSAVAWYQQKPGKAPKLLIYSASSLYSGVPSRFSGSRSGTDFTLTISSLQPEDFATYYCQQYTSHPGTFGQGTKVEIKRTVAAPSVFIFPPSDEQLKSGTASVVCLLNNFYPREAKVQWKVDNALQSGNSQESVTEQDSKDSTYSLSSTLTLSKADYEKHKVYACEVTHQGLSSPVTKSFNRGECDKTHTCPPCPAPELLGGPSVFLFPPKPKDTLMISRTPEVTCVVVDVSHEDPEVKFNWYVDGVEVHNAKTKPREEQYNSTYRVVSVLTVLHQDWLNGKEYKCKVSNKALPAPIEKTISKAKGQPREPQVCTLPPSREEMTKNQVSLSCAVKGFYPSDIAVEWESNGQPENNYKTTPPVLDSDGSFFLVSKLTVDKSRWQQGNVFSCSVMHEALHNHYTQKSLSLSPGK
chain 4: EVQLVESGGGLVQPGGSLRLSCAASGFTFSSYVIHWVRQAPGKGLEWVAYIFPYGGTTYYADSVKGRFTISADTSKNTAYLQMNSLRAEDTAVYYCARGYYYVSDRVMDYWGQGTLVTVSSASTKGPSVFPLAPSSKSTSGGTAALGCLVKDYFPEPVTVSWNSGALTSGVHTFPAVLQSSGLYSLSSVVTVPSSSLGTQTYICNVNHKPSNTKVDKKVEPPKSC
Turning to B3, the “antibody concentration” value in assay [1] is 10 nM.

B4: OX40:24(WEE)-11×11 (bispecific antibody)
chain 1: not shown
chain 2: EVQLVESGGGLVQPGGSLRLSCAASGFTFSSYVIHWVRQAPGKGLEWVAYIFPYGGTTYYADSVKGRFTISADTSKNTAYLQMNSLRAEDTAVYYCARGYYYVSDRVMDYWGQGTLVTVSSASTKGPSVFPLAPSSKSTSGGTAALGCLVKDYFPEPVTVSWNSGALTSGVHTFPAVLQSSGLYSLSSVVTVPSSSLGTQTYICNVNHKPSNTKVDKKVEPPKSC
chain 3: DIQMTQSPSSLSASVGDRVTITCRASQSVSSAVAWYQQKPGKAPKLLIYSASSLYSGVPSRFSGSRSGTDFTLTISSLQPEDFATYYCQQYTSHPGTFGQGTKVEIKRTVAAPSVFIFPPSDEQLKSGTASVVCLLNNFYPREAKVQWKVDNALQSGNSQESVTEQDSKDSTYSLSSTLTLSKADYEKHKVYACEVTHQGLSSPVTKSFNRGECDKTHTCPPCPAPELLGGPSVFLFPPKPKDTLMISRTPEVTCVVVDVSHEDPEVKFNWYVDGVEVHNAKTKPREEQYNSTYRVVSVLTVLHQDWLNGKEYKCKVSNKALPAPIEKTISKAKGQPREPQVCTLPPSREEMTKNQVSLSCAVKGFYPSDIAVEWESNGQPENNYKTTPPVLDSDGSFFLVSKLTVDKSRWQQGNVFSCSVMHEALHNHYTQKSLSLSPGK
chain 4: EVQLVESGGGLVQPGGSLRLSCAASGFTFLSYYIHWVRQAPGKGLEWVAYIDPYSGGTDYADSVKGRFTISADTSKNTAYLQMNSLRAEDTAVYYCARVGLSFYAQEPVLDYWGQGTLVTVSSASPREPQVYTDPPSRDELTKNQVSLTCLVKGFYPSDIAVEWESNGQPENNYKTTPPVLDSDGSFFLYSKLTVDKSRWQQGNVFSCSVMHEALHNHYTQKSLSLSGEC
B4: the “antibody concentration” value in assay [1] is less than 10 nM.

B5: Tavolixizumab (IgG1-kappa) (antibody, V domains shown)
VH: QVQLQESGPGLVKPSQTLSLTCAVYGGSFSSGYWNWIRKHPGKGLEYIGYISYNGITYHNPSLKSRITINRDTSKNQYSLQLNSVTPEDTAVYYCARYKYDYDGGHAMDYWGQGTLVTVSS
VL: DIQMTQSPSSLSASVGDRVTITCRASQDISNYLNWYQQKPGKAPKLLIYYTSKLHSGVPSRFSGSGSGTDYTLTISSLQPEDFATYYCQQGSALPWTFGQGTKVEIKR
On to B5, for which the binding result is listed as “no binding” in the assay with OX40: 127-214-Fc and “binds” in the assay with OX40: 108-214-Fc.

B6: Pogalizumab (IgG1-kappa) (antibody, V domains shown)
VH: EVQLVQSGAEVKKPGASVKVSCKASGYTFTDSYMSWVRQAPGQGLEWIGDMYPDNGDSSYNQKFRERVTITRDTSTSTAYLELSSLRSEDTAVYYCVLAPRWYFSVWGQGTLVTVSS
VL: DIQMTQSPSSLSASVGDRVTITCRASQDISNYLNWYQQKPGKAPKLLIYYTSRLRSGVPSRFSGSGSGTDFTLTISSLQPEDFATYYCQQGHTLPPTFGQGTKVEIKR
notes: also called Pagolizumab
As to B6, the results for the binding result with OX40: 127-214-Fc and with OX40: 108-214-Fc were “no binding” and “binds”, respectively.

B7: GSK3174998 (antibody, human IgG1, kappa, V domains shown)
VH: EVKLEESGGGLVQPGGSMKLSCAASGFTFSDAWMDWVRQSPEKGLEWVAEIRSKANNHATYYAESVNGRFTISRDDSKSSVYLQMNSLRAEDTGIYYCTWGEVFYFDYWGQGTTLTVSS
VL: DIQMTQSPSSLSASLGGKVTITCKSSQDINKYIAWYQHKPGKGPRLLIHYTSTLQPGIPSRFSGSGSGRDYSFSISNLEPEDIATYYCLQYDNLLTFGAGTKLELKR
notes: also called Clinical mAB; clinical
For the molecule B7, the binding result with OX40: 66-214-Fc is “binds”.
